Biological target: T1, murine CD47 (murine, UniProt Q61735 19-303)
T1 sequence (looked up): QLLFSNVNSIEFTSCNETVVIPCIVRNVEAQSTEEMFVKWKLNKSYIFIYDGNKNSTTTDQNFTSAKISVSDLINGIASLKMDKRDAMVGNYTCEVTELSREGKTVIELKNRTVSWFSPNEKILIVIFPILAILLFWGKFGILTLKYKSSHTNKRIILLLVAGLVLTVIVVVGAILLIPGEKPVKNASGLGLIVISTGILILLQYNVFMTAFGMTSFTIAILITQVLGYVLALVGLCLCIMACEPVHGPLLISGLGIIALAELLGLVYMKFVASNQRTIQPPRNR
Assay: cell-based or functional assay

biotin labeling of B16 cells, fold over non-targeted ultraID at 1 nM: 10 fold | streptavidin-PE signal on B16 cells, enzyme-based labeling relative to binding by the biotinylated nanobody construct alone: ≥ 20 fold
B1: anti-mCD47 nanobody-ultraID (murine CD47) (other)
chain: QVQLVESGGGLVEPGGSLRLSCAASGIIFKINDMGWYRQAPGKRREWVAASTGGDEAIYRDSVKDRFTISRDAKNSVFLQMNSLKPEDTAVYYCTAVISTDRDGTEWRRYWGQGTQVTVSSGGLPETGGGGGSGGGSGGGSMFKNLIWLKEVDSTQERLKEWNVSYGTALVADRQTKGRGGPGRKWLSQEGGLYFSFLLNPKEFENLLQLPLVLGLSVSEALEEITEIPFSLKWPNDVYFQEKKVSGVLCELSKDKLIVGIGINVNQREIPEEIKDRATTLYEITGKDWDRKEVLLKVLKRISENLKKFKEK

Source: patent publication US20250223583A1 (BROAD INSTITUTE, published 2025)
